# Reference: patent publication US20250136696A1 (HARBOUR BIOMED SHANGHAI, published 2025)
# T1: human B7-H7 on the cell surface (human, UniProt Q9UM44 23-414)
# T1 construct: whole, on cells; also called hB7-H7; hu B7-H7
# T1 sequence (looked up): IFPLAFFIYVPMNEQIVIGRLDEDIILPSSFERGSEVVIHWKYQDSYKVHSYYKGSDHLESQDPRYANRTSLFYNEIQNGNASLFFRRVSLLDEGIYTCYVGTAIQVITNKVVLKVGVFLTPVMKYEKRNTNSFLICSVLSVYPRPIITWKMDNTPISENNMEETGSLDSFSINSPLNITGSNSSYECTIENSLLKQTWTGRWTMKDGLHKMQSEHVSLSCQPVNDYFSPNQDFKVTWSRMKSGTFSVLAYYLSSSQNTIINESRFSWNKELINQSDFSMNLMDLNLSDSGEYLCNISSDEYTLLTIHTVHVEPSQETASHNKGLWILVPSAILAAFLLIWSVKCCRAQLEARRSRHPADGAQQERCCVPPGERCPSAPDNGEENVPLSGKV
# Biological target: T1, human B7-H7 on the cell surface
# Experiment: flow cytometry, LS180 cells
# Description: This example was intended to study the in vitro activity of H2L2 monoclonal antibodies against human B7-H7 in binding to human/cynomolgus monkey B7-H7. Since homologous molecules of B7-H7 were not present in mice, the detection was not performed. […] The cells were adjusted to a cell density of 1×10⁶ cells/mL, respectively. The cells were seeded in a 96-well V-bottom plate (Corning, #3894) at 100 μL/well, and the antibody to be tested at 2× final concentration with 3-fold concentration gradient dilution was then added at 100 μL/well. The cells were incubated at 4° C. for 2 hours in the dark. After the incubation, the cells were rinsed twice by adding pre-chilled PBS containing 2% BSA at 100 μl/well, and centrifuged at 500 g at 4° C. for 5 minutes, and the supernatant was discarded. […] The cells were washed twice by adding pre-chilled PBS containing 2% BSA at 100 μL/well, and centrifuged at 500 g at 4° C. for 5 minutes, and the supernatant was discarded. Finally, the cells were resuspended in pre-chilled PBS containing 2% BSA at 200 μL/well, and the fluorescence signal values were read using an ACEA Novocyte3000 flow cytometer.
EC50 [nM],Maximum MFI [MFI],Binder
0.044,25100,"PR004483 (antibody, human IgG1, kappa, L234A L235A, V domains shown, Variant of PR003249, H:G55A; L:N92Q; Human IgG1 LALA) VH: QVQLVESGGGVVQPGRSLRLSCAASGFTFSDYGIHWVRQAPGKGLEWVAVIWYDASDKYYADSVRGRFTISRDNSKNTLSLQMNSLRVEDTAVYYCARDRSSGAMGYFVYWGQGTLVTVSS VL: not shown"
0.04,24600,"PR004484 (antibody, human IgG1, kappa, L234A L235A, V domains shown, Variant of PR003249, H:G55A; L:S93A; Human IgG1 LALA) VH: QVQLVESGGGVVQPGRSLRLSCAASGFTFSDYGIHWVRQAPGKGLEWVAVIWYDASDKYYADSVRGRFTISRDNSKNTLSLQMNSLRVEDTAVYYCARDRSSGAMGYFVYWGQGTLVTVSS VL: not shown"
0.066,22800,"PR004491 (antibody, human IgG1, kappa, L234A L235A, V domains shown, Variant of PR003259, H:G55A; L:N92Q; Human IgG1 LALA) VH: QVQLVESGGGVVQPGRSLRLSCAASGFTFSNYGMHWVRQVPGKGLEWVAVIWYDASEKDYADSVKGRFTISRDNSKNTLYLQMNSLRVEDTAVYYCAKDLISGIYYVDHWGQGTLVTVSS VL: DIQMTQSPSSLSASVGDRVTITCRASQGISNYLAWYQQKPGKVPKLLIYAASTLQSGVPSRFSGSGSGTDFTLTISSLQPEDVATYYCQKYQSAPFTFGPGTKVDIKR"
0.052,22900,"PR004492 (antibody, human IgG1, kappa, L234A L235A, V domains shown, Variant of PR003259, H:G55A; L:S93A; Human IgG1 LALA) VH: QVQLVESGGGVVQPGRSLRLSCAASGFTFSNYGMHWVRQVPGKGLEWVAVIWYDASEKDYADSVKGRFTISRDNSKNTLYLQMNSLRVEDTAVYYCAKDLISGIYYVDHWGQGTLVTVSS VL: DIQMTQSPSSLSASVGDRVTITCRASQGISNYLAWYQQKPGKVPKLLIYAASTLQSGVPSRFSGSGSGTDFTLTISSLQPEDVATYYCQKYNAAPFTFGPGTKVDIKR"

# Biological target: T1, human B7-H7 on the cell surface
# Experiment: flow cytometry on LS180 cells, expression supernatant diluted 1:1, 1:10, 1:100
row,binding result,Binder
1,binds,"PR004480 (antibody, human IgG1, kappa, L234A L235A, V domains shown, Variant of PR003249, H:D54E; L:N92Q; Human IgG1 LALA; expressed supernatant only) VH: QVQLVESGGGVVQPGRSLRLSCAASGFTFSDYGIHWVRQAPGKGLEWVAVIWYEGSDKYYADSVRGRFTISRDNSKNTLSLQMNSLRVEDTAVYYCARDRSSGAMGYFVYWGQGTLVTVSS VL: not shown"
2,binds,"PR004481 (antibody, human IgG1, kappa, L234A L235A, V domains shown, Variant of PR003249, H:D54E; L:S93A; Human IgG1 LALA; expressed supernatant only) VH: QVQLVESGGGVVQPGRSLRLSCAASGFTFSDYGIHWVRQAPGKGLEWVAVIWYEGSDKYYADSVRGRFTISRDNSKNTLSLQMNSLRVEDTAVYYCARDRSSGAMGYFVYWGQGTLVTVSS VL: not shown"
3,binds,"PR004482 (antibody, human IgG1, kappa, L234A L235A, V domains shown, Variant of PR003249, H:G55A; Human IgG1 LALA; expressed supernatant only) VH: QVQLVESGGGVVQPGRSLRLSCAASGFTFSDYGIHWVRQAPGKGLEWVAVIWYDASDKYYADSVRGRFTISRDNSKNTLSLQMNSLRVEDTAVYYCARDRSSGAMGYFVYWGQGTLVTVSS VL: not shown"
4,binds,"PR004485 (antibody, human IgG1, kappa, L234A L235A, V domains shown, Variant of PR003249, L:N92Q; Human IgG1 LALA; expressed supernatant only) VH: QVQLVESGGGVVQPGRSLRLSCAASGFTFSDYGIHWVRQAPGKGLEWVAVIWYDGSDKYYADSVRGRFTISRDNSKNTLSLQMNSLRVEDTAVYYCARDRSSGAMGYFVYWGQGTLVTVSS VL: not shown"
5,binds,"PR004486 (antibody, human IgG1, kappa, L234A L235A, V domains shown, Variant of PR003249, L:S93A; Human IgG1 LALA; expressed supernatant only) VH: QVQLVESGGGVVQPGRSLRLSCAASGFTFSDYGIHWVRQAPGKGLEWVAVIWYDGSDKYYADSVRGRFTISRDNSKNTLSLQMNSLRVEDTAVYYCARDRSSGAMGYFVYWGQGTLVTVSS VL: not shown"
6,binds,"PR004487 (antibody, human IgG1, kappa, L234A L235A, V domains shown, Variant of PR003259, H:D54E; Human IgG1 LALA; expressed supernatant only) VH: QVQLVESGGGVVQPGRSLRLSCAASGFTFSNYGMHWVRQVPGKGLEWVAVIWYEGSEKDYADSVKGRFTISRDNSKNTLYLQMNSLRVEDTAVYYCAKDLISGIYYVDHWGQGTLVTVSS VL: DIQMTQSPSSLSASVGDRVTITCRASQGISNYLAWYQQKPGKVPKLLIYAASTLQSGVPSRFSGSGSGTDFTLTISSLQPEDVATYYCQKYNSAPFTFGPGTKVDIKR"
7,binds,"PR004488 (antibody, human IgG1, kappa, L234A L235A, V domains shown, Variant of PR003259, H:D54E; L:N92Q; Human IgG1 LALA; expressed supernatant only) VH: QVQLVESGGGVVQPGRSLRLSCAASGFTFSNYGMHWVRQVPGKGLEWVAVIWYEGSEKDYADSVKGRFTISRDNSKNTLYLQMNSLRVEDTAVYYCAKDLISGIYYVDHWGQGTLVTVSS VL: DIQMTQSPSSLSASVGDRVTITCRASQGISNYLAWYQQKPGKVPKLLIYAASTLQSGVPSRFSGSGSGTDFTLTISSLQPEDVATYYCQKYQSAPFTFGPGTKVDIKR"
8,binds,"PR004489 (antibody, human IgG1, kappa, L234A L235A, V domains shown, Variant of PR003259, H:D54E; L:S93A; Human IgG1 LALA; expressed supernatant only) VH: QVQLVESGGGVVQPGRSLRLSCAASGFTFSNYGMHWVRQVPGKGLEWVAVIWYEGSEKDYADSVKGRFTISRDNSKNTLYLQMNSLRVEDTAVYYCAKDLISGIYYVDHWGQGTLVTVSS VL: DIQMTQSPSSLSASVGDRVTITCRASQGISNYLAWYQQKPGKVPKLLIYAASTLQSGVPSRFSGSGSGTDFTLTISSLQPEDVATYYCQKYNAAPFTFGPGTKVDIKR"
9,binds,"PR004490 (antibody, human IgG1, kappa, L234A L235A, V domains shown, Variant of PR003259, H:G55A; Human IgG1 LALA; expressed supernatant only) VH: QVQLVESGGGVVQPGRSLRLSCAASGFTFSNYGMHWVRQVPGKGLEWVAVIWYDASEKDYADSVKGRFTISRDNSKNTLYLQMNSLRVEDTAVYYCAKDLISGIYYVDHWGQGTLVTVSS VL: DIQMTQSPSSLSASVGDRVTITCRASQGISNYLAWYQQKPGKVPKLLIYAASTLQSGVPSRFSGSGSGTDFTLTISSLQPEDVATYYCQKYNSAPFTFGPGTKVDIKR"
10,binds,"PR004493 (antibody, human IgG1, kappa, L234A L235A, V domains shown, Variant of PR003259, L:N92Q; Human IgG1 LALA; expressed supernatant only) VH: QVQLVESGGGVVQPGRSLRLSCAASGFTFSNYGMHWVRQVPGKGLEWVAVIWYDGSEKDYADSVKGRFTISRDNSKNTLYLQMNSLRVEDTAVYYCAKDLISGIYYVDHWGQGTLVTVSS VL: DIQMTQSPSSLSASVGDRVTITCRASQGISNYLAWYQQKPGKVPKLLIYAASTLQSGVPSRFSGSGSGTDFTLTISSLQPEDVATYYCQKYQSAPFTFGPGTKVDIKR"
11,binds,"PR004494 (antibody, human IgG1, kappa, L234A L235A, V domains shown, Variant of PR003259, L:S93A; Human IgG1 LALA; expressed supernatant only) VH: QVQLVESGGGVVQPGRSLRLSCAASGFTFSNYGMHWVRQVPGKGLEWVAVIWYDGSEKDYADSVKGRFTISRDNSKNTLYLQMNSLRVEDTAVYYCAKDLISGIYYVDHWGQGTLVTVSS VL: DIQMTQSPSSLSASVGDRVTITCRASQGISNYLAWYQQKPGKVPKLLIYAASTLQSGVPSRFSGSGSGTDFTLTISSLQPEDVATYYCQKYNAAPFTFGPGTKVDIKR"
